Literature values as cited in publication PMC11277083, “A Natural Bioactive Peptide from Pinctada fucata Pearls Can Be Used as a Potential Inhibitor of the Interaction between SARS-CoV-2 and ACE2 against COVID-19” (International Journal of Molecular Sciences, 2024).

Tested on: SARS-CoV-2 pseudoparticle
Details: pretreatment; blocking the interaction between ACE2 and the RBD

B1: human defensin 5 (HD5): human defensin 5 (peptide, UniProt Q01523 20-94, looked up)
Defensin alpha 5: ESLQERADEATTQKQSGEDNQDLAISFAGNGLSALRTSGSQARATCYCRTGRCATRESLSGVCEISGRLYRLCCR
modifications: Defensin-5
  effect on SARS-CoV-2 pseudoparticle infection: could reduce SARS-CoV-2 pseudoparticle infection
